The values below come from the RNAGym collection of RNA variant scans (doi:10.1093/molbev/msab373).

To fix the notation:
B1: Azoarcus group I ribozyme (parent)
chain: GUGCCUUGCGCCGGGAAACCACGCAAGGGAUGGUGUCAAAUUCGGCGAAACCUAAGCGCCCGCCCGGGCGUAUGGCAACGCCGAGCCAAGCUUCGGCGCCUGCGCCGAUGAAGGUGUAGAGACUAGACGGCACCCACCUAAGGCAAACGCUAUGGUGAAGGCAUAGUCCAGGGAGUGGCGAAAGUCACACAAACCGG

This data set covers variants of B1. In words: reverse-splicing fitness (ratio to wild type); higher = more active; in vitro selection; Mg2+ level not given. The procedure, abridged:
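An in vitro group I ribozyme library with randomized positions was T7-transcribed and gel-purified. In triplicate, 10 pmol RNA in EPPS pH 7.5 was reacted with 50 pmoles of a 30-nt RNA substrate for 1 h at 37 °C across several added MgCl2 levels (1–48 mM), then stopped with EDTA. Products were reverse transcribed from a substrate-complementary primer, PCR-amplified and sequenced (HiSeq 4000). Fitness is a variant's read proportion after selection over that before, normalised to wild type.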
Turning to A111G A145G C150G, the reverse-splicing fitness came out at 0.364. Then C82U A111G A120C A145U C150A C169A U176G, with 0.00469; and C82G A111G A120G A145G C150G C169G, with 0.00845. Then A111G A145U C150U C169A, with 0.0341; and A111G A145U C150U C169G, with 0.0749; and C82U A111C A145G C150U C169A, with 0.00963.

C82U A111U A120G A145C C150U C169A U176A: the reverse-splicing fitness was 0.0102. Then C82A A111G A120C A145G C150U U176C, with 0.0258. Consider C82A A111G A120C A145G C150U U176A, for which the reverse-splicing fitness came to 0.0156. Then C82G A111U A145G C150U C169U U176C, with 0.0146; and C82U A120U A145C U176G, with 0.011; and A111G A120C C169U U176G, with 0.00675. As for C82A A111U A120C A145G C150U U176G, the reverse-splicing fitness is 0.00822. As to C82G A120C A145G C150U U176A, the reverse-splicing fitness came to 0.0566. In the case of C82G A120U A145C C150U C169G, the reverse-splicing fitness worked out at 0.003. Then C82G A111C C150A U176A, with 0.0223. Regarding A111C A120G A145U C150U C169A U176G, the reverse-splicing fitness is 0.00499. Then C82A A111G A120C A145C C169G U176G, with 0.00569.

As to C82G A111G A120C A145C C169U U176C, the reverse-splicing fitness worked out at 0.01.

As to C82A A111U A120G A145G C150U C169G U176C, the reverse-splicing fitness worked out at 0.0178. Turning to C82U A111G C150A C169A, the reverse-splicing fitness stood at 0.00969. Then C82G A111C A120U C150A C169G, with 0.0046; and C82G A111C A145G C169G U176A, with 0.0207. On to C82U A111G A120U A145U C150U C169A U176C, for which the reverse-splicing fitness was found to be 0.0023. For the variant A120G A145U C169U U176C, the reverse-splicing fitness is 0.194. Then A111U A120G A145U C150U C169G U176A, with 0.0274. In the case of C82G A111C A120C C150G U176C, the reverse-splicing fitness worked out at 0.00847. For the variant C82A A111C A120U A145G C169G U176A, the reverse-splicing fitness worked out at 0.00381. Turning to C82A A111G A120C A145G C150A C169U U176A, the reverse-splicing fitness came out at 0.0153. C82U A111G A120C A145U C150G C169U U176C: the reverse-splicing fitness is 0.0124. With C82A A111C A120C A145G C169U, the reverse-splicing fitness was 0.0141. Then C82U A111U A120C A145U C150U C169G U176A, with 0.011; and C82A A111C A120G A145U C150U C169U U176G, with 0.00648. On to C82U A111G A145C C150U C169A U176C, for which the reverse-splicing fitness was found to be 0.00548. Then C82G C169U, with 0.017; and C82U A111U A145C C150A C169G U176C, with 0.0138; and C150A C169G U176A, with 0.026. Regarding C82A A111G A120U A145U C150U C169A U176A, the reverse-splicing fitness was determined as 0.00237. For A111G A120C A145G C150G C169U U176C, the reverse-splicing fitness was found to be 0.0116. For A111C A145G C169A, the reverse-splicing fitness was found to be 0.0355. Then C82A A111C A145U C150A C169G U176G, with 0.0087. C82A A111G A120G A145C C169G U176G: the reverse-splicing fitness was 0.0046. Then C82G A111C A120G A145G C150G C169G U176C, with 0.0123; and C82G A111U A120G A145G C150G C169A U176A, with 0.0133. Then C82G A111U A120G A145G C150G C169A U176G, with 0.00831. C82A A111U A145U C150G C169G U176C: the reverse-splicing fitness came out at 0.00625.

Turning to C82U A120G A145U C169U U176A, the reverse-splicing fitness was 0.0216. Consider C82G A111C A120U C169A U176G, for which the reverse-splicing fitness amounted to 0.00246. C82A A120C A145U C150G: the reverse-splicing fitness turned out to be 0.0161. Then C82G A111C A120U A145C C150G C169G, with 0.0033; and C82U A120C C150A C169U U176C, with 0.0169.

In the case of C82G A111U A145C C169U U176C, the reverse-splicing fitness is 0.0119. As to A111C A120U A145C C150U, the reverse-splicing fitness was determined as 0.18. For C82A A111G A120C C150A U176G, the reverse-splicing fitness came to 0.0115. As for A111U A120C A145G C150U U176C, the reverse-splicing fitness came to 0.25. Then C82G A111U A120U C169G U176G, with 0.00175; and C82A A120U A145U C150G C169G, with 0.00265; and C82A A111C A120C A145G C150A U176C, with 0.0232. Then C82A A111U A120G A145C C150A C169A U176A, with 0.0128; and C82U A111C A120U A145G C150A C169G U176A, with 0.00613. In the case of C82G A111C A120C A145G C150A C169A U176G, the reverse-splicing fitness came to 0.00862. As to C82U A111G A120C A145G C169U, the reverse-splicing fitness was 0.0129. With C82G A111G A120G A145C C150U C169A, the reverse-splicing fitness was 0.00962. Then C82A A120U A145C C150G, with 0.0172. Turning to C82U A120C A145C C150A C169A U176A, the reverse-splicing fitness is 0.00849.

C82A A111G U176A: the reverse-splicing fitness was 0.189. On to C82A A111U A145G C150U C169A U176C, for which the reverse-splicing fitness is 0.0162. Then C82U A111G A120G A145G C150G C169A U176C, with 0.0117; and A111G A120U A145G C150G, with 0.0771; and C82A A120G A145C C150G U176G, with 0.00304. Then A111C A145C C150U C169G U176A, with 0.0249; and A120G A145G C150U C169G U176A, with 0.149. Then C82A A111C A120U C150A C169G U176C, with 0.00395.

For C82A A111G A120C A145C C169G, the reverse-splicing fitness is 0.00965. Then C82G A111G A120C A145U C150A, with 0.0142; and C82U A120G A145G C150A C169A U176G, with 0.00457; and C82U A145U C150A U176A, with 0.055.

On to C82A A111C A120G A145G C150G, for which the reverse-splicing fitness worked out at 0.00731.

For the variant C82U A111C A120U C150G C169A U176A, the reverse-splicing fitness turned out to be 0.00624. Take C82G A111C A145C U176C: the reverse-splicing fitness stood at 0.137. Then C82G A111U A120G U176C, with 0.0216; and C82G A111U A145G C150U, with 0.298; and A111G A120U A145C C150G U176C, with 0.0153.
